Consider two substances from article PMC3482105.

The target in test [1] is GCaMP5H. The test can be described thus: crystal structure.
Test [2] concerns the target GCaMP2-LIA. The test can be described thus: crystal structure.

In the case of GCaMP5H, the stoichiometry N in test [1] came to 2.

In the case of GCaMP2-LIA, the stoichiometry N in test [2] is 2.
